{"source": "patent US6132711A", "about": "“Enzymatic antioxidant of allene oxide for lipid peroxidation in biological systems” (Arizona Board of Regents, priority 1997, dated 2000)", "molecules": {"B1": {"name": "RPP: polypeptide of 53,500 Daltons from guayule rubber particles; non-mono-oxygenase cytochrome P450 heme-binding protein, a species of allene oxide synthase (protein)", "chain": "MDPSSKPLREIPGSYGIPFFQPIKDRLEYFYGTGGRDEYFRSRMQKYQSTVFRANMPPGPFVSSNPKVIVLLDAKSFPILFDVSKVEKKDLFTGTYMPSTKLTGAYRVLSYLDPSEPRHAQLKNLLFFMLKNSSNRVIPQFETTYYELFEGLEAELAKNGKAAFNDVGEQAAFRFLGRAYFNSNPEETKLGTSAPTLISSWVLFNLAPTLDLGLPWFLQEPLLHTFRLPAFLIKSTYNKLYDYFQSVATPVMEQAEKLGVPKDEAVHNILFAVCFNTFGGVKILFPNTLKWIGVAGENLHTQLAEEIRGAIKSYGDGNVTLEAIEQMPLTKSVVYESLRIEPPVPPQYGKAKSNFTIESHDATFEVKKGEMLFGYQPFATKDPKVFDRPEEFVPDRFVGDGEALLKYVWWSNGPETESPTVENKQCAGKDFVVLITRLFVIELFRRYDSEIELGESPLGAAVTLTFLKRASI"}}, "key": {"[1]": {"tested_on": "lipid hydroperoxides", "settings": "Hamberg 1987; cited from earlier work"}, "[2]": {"tested_on": "tobacco leaf disks", "experiment": "Cell leakage analysis of leaf disks treated with methyl viologen", "type": "cell-based, tobacco cv. Samsun", "settings": "transgenic AOS tobacco vs untransformed control; 1.2 μM methyl viologen", "experimental": "Transgenic cv. Samsun tobacco plants that […] AOS and untransformed cv. Samsun plants were gown in a growth chamber maintained at 28° C. and an irradiance of 500 μmole quanta per square meter per sec. at 16 hours per day. Leaf disks of transgenic plants (FIG. 20, disks 3, 6, 14 and 17) were compared with untransformed plants (FIG. 20, disk C) according to the general method set forth in Gupta et al., Proc. Natl. Acad. Sci. USA 90: 1629-1633 (1993).\nLeaf disks (2 cm^2) were collected from tobacco plants and placed in petri dishes (15×60 mm) containing 4 ml of a 1.2 μM methyl viologen (MV) solution and vacuum infiltrated for 5 min. MV values are means ±SD (n=4). The samples were incubated at 22° C. for 16 hours in darkness followed by illumination at 500 μM quanta per square meter per sec. for 2 hours. The leaf disks then were incubated for an additional 16 hours in darkness.\nThe MV solution was collected for conductivity with leaf disks then was autoclaved for 10 min. at 121° C. The conductivity of the autoclaved solution was again measured. The present electrolyte leakage was determined by dividing the value of conductivity of MV solution by the value obtained after autoclaving."}, "[3]": {"tested_on": "linoleic acid hydro peroxide (LOOH)", "experiment": "AOS activity assay: degradation of linoleic hydroperoxide (LOOH) followed at 234 nm", "type": "biochemical, guayule", "experimental": "A difference spectra of this extract clearly indicated a characteristic peak at 450 nm (arrow, FIG. 6C). […] This substrate was prepared according to Zimmerman (Zimmerman, Biochem. Biophys. Res. Comm. 23:398-403 (1966); Zimmerman and Feng, Lipids 13:313-316 (1978); Zimmerman and Vick, Plant. Physiol. 46:445-453 (1970)).\n(1991) and Zimmerman, op cit. (1966); Zimmerman and Vick, op cit. (1970) and Zimmerman and Feng, op cit. (1978)"}, "[4]": {"tested_on": "linoleic acid conjugated dienes", "experiment": "UV spectrophotometry of superoxide-induced linoleic acid conjugated dienes (A234)", "type": "biochemical, guayule", "experimental": "Likewise, the effect of superoxide, produced by the riboflavin/TEMED mixture and light, on lipid peroxidation was determined. […] The mixture was exposed to light and scanned in a UV spectrophotometer at 200 to 300 nm at 10 sec intervals for 2 minutes and again at 5 and 10 min. The effect of AOS on superoxide-inducedlinoleic hydroperoxides was determined using partially pure AOS solubilized from fresh rubber particles using the CHAPS extraction and filtration procedure (Pan et al., J Biol Chem 270: 8487-8494, 1995), which removed all remaining rubber. One μg partially pure AOS was added to oxidized linoleic acid and UV scanned at 2 minute intervals.\nThis mixture was scanned at A234 followed by addition of riboflavin/TEMED and exposure to 10 min. of light, to produce superoxide. The mixture was rescanned at 10 min intervals."}, "[5]": {"experiment": "Prenyltransferase activity: incorporation of 14C-isopentenyl pyrophosphate into isoprenoid derivatives, TLC", "type": "biochemical, guayule", "settings": "CHAPS-solubilized, filtered RPP; DMAPP as initiator; 100 μl aliquots", "experimental": "Biochemical analyses were performed on RPP purified from rubber particles. Three-times-washed rubber particles were prepared by centrifugation according to Cornish and Backhaus, op cit. (1990) from a crude homogenate of guayule stembark. […] Prenyltransferase activity was determined for each purification step by measuring the incorporation of ^14 C-isopentenyl pyrophosphate into isoprenoid derivatives that were analyzed by TLC (benzene/ethyl acetate, 90/10) and autoradiography (Dogbo and Camara, Plant Sci. 49: 103-109 (1987); Kuntz et al., Plant J. 2:25-34 (1992)). Dimethylallyl pyrophosphate (DMAPP) was used as the initiator to measure activity in 100 μl aliquots of proteins from each of the three steps (FIG. 6B, lanes 1-3). […] However, prenyltransferase activity was present in both the crude homogenate and washed preparations containing rubber particles (cf. FIG. 6B, lane 3 with lanes 1 and 2). […]\nWashed rubber particles were prepared by centrifugation according to Cornish and Backhaus, op cit.(1990) from a crude homogenate of guayule stembark. […] Prenyltransferase activity was determined for each purification step by measuring the incorporation of ^14 C-isopentenyl pyrophosphate into isoprenoid derivatives according to Dogbo and Camara, op cit. […]"}, "[6]": {"settings": "Backhaus et al. 1991; cited from earlier work"}}, "note": "Entries after “also recorded” stand apart in the source; their conditions may differ."}
{"molecule": "B1", "values": [{"measurement": "kcat", "setting": "[1]", "result": "> 1000", "unit": "s⁻¹"}, {"measurement": "percent electrolyte leakage", "setting": "[2]", "result": "substantially less percent electrolyte leakage"}, {"measurement": "AOS activity (LOOH degradation)", "setting": "[3]; UV spectra at 10 sec intervals", "result": "high AOS activity"}, {"measurement": "time to complete disappearance of LOOH (234 nm peak)", "setting": "[3]; enzyme preparation added to cuvette with LOOH, repetitive UV scans at 10 sec intervals", "result": 10, "unit": "min"}, {"measurement": "A234 increase on exposure to light (superoxide) with AOS present", "setting": "[4]; linoleic acid + riboflavin/TEMED + AOS", "result": "prevented the increase in A234"}, {"measurement": "A234 (conjugated dienes) after AOS added to oxidized linoleic acid", "setting": "[4]; linoleic acid oxidized by riboflavin/TEMED in light, 1 μg partially pure AOS, listed as AOS", "result": "A234 decreased; also recorded: time-dependent disappearance of conjugated dienes"}, {"measurement": "prenyltransferase activity", "setting": "[5]", "result": "complete absence of prenyltransferase activity; also recorded: synthesizes no isoprenes"}, {"measurement": "isoelectric point (pI), experimental value", "setting": "[6]", "result": 6.2}]}
